# According to patent US20160108110A1 (Novartis, published 2016):
# Like-named read-outs stand apart in the source and are kept apart here.
# T1: Human ANGPTL4(26-406)-FLAG-His6-Avi (human, UniProt Q9BY76 24-406, biotin on the C-terminal Avi tag in the biotinylated preparations (immobilised form in SET, ELISA and Octet))
# T1 sequence: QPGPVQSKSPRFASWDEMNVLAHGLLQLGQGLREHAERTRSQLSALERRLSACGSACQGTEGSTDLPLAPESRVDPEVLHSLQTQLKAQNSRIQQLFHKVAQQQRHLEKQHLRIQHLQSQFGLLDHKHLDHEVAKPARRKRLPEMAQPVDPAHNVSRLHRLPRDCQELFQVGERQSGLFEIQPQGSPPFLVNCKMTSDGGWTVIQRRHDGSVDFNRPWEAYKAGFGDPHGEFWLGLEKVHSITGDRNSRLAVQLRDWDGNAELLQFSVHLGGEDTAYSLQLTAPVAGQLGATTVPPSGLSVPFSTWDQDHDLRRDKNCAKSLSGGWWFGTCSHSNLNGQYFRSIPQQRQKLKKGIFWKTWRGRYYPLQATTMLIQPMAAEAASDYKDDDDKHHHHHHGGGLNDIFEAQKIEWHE
# T2: Human ANGPTL3(17-460)-FLAG-His-Avi (human, UniProt Q9Y5C1 17-460, biotin on the C-terminal Avi tag)
# T2 construct: also called full length human ANGPTL3; hANGPTL3
# T2 sequence: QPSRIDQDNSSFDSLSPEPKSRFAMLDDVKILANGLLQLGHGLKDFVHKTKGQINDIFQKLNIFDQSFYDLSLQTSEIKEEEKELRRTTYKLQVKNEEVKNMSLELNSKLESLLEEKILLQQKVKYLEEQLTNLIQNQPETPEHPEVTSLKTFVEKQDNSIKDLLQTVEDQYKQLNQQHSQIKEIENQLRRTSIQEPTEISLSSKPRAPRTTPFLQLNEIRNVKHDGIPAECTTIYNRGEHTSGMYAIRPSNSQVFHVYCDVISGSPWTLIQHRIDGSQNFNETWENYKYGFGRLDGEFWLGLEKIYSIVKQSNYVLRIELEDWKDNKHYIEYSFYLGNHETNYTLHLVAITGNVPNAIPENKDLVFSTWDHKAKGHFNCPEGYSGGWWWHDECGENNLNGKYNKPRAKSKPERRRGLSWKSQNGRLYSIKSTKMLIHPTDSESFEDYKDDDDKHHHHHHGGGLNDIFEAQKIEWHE
# What was measured:
# [1] = target: T1, Human ANGPTL4(26-406)-FLAG-His6-Avi; assay: cell-based or functional assay
# [2] = target: T1, Human ANGPTL4(26-406)-FLAG-His6-Avi; assay: cell-based or functional assay; remark: listed apart in the source
# [3] = target: T1, Human ANGPTL4(26-406)-FLAG-His6-Avi; assay: SET assay (solution equilibrium titration, MSD), IgG
# Method: SET assays were performed as follows. In a 96-well polypropylene plate, a constant concentration of ANGPTL4 antibody was mixed with different concentrations of non-biotinylated human, cyno, mouse, or rat full-length ANPGLT4 protein, or human ANGPTL4 N-terminal domain protein (5-fold serial dilution) and incubated at 22° C. for 14 hours with constant shaking (300 rpm). On a pre-blocked 384-well streptavidin-coated Meso Scale Discovery (MSD) plate biotinylated ANGPTL4 (full-length human, cyno, mouse, or rat ANGPTL4, or human ANGPTL4 N-terminal domain) protein (1 nM, 15 μL per well) was immobilized and washed thereafter.
# The equilibrium binding reactions (15 μL per well) were applied to the MSD plate with immobilized ANGPTL4 and incubated for 20 min at 22° C. The unbound material was removed by washing the plate 3 times with wash buffer, and the captured antibody was detected by adding Sulfo-tagged goat anti-human IgG (Meso Scale Discovery). After washing MSD read buffer T was added and the plate was developed using a Sector Imager 6000 (Meso Scale Discovery). The data were transferred to Microsoft Excel for analysis and plotted using GraphPad Prism v6. The KD values were determined by fitting the data to the following equation: […]
# where Bₘₐₓ is the signal when no ANGPTL4 protein is present in solution, CAb is the constant concentration of ANGPTL4 antibody in solution, CAg is the concentration of ANGPTL4 in solution, and KD is the equilibrium dissociation constant.
# [4] = target: T1, Human ANGPTL4(26-406)-FLAG-His6-Avi; assay: ForteBio Octet, biotinylated antigen on streptavidin sensor, antibody in solution
# Method: Dissociation constants (KD) were determined for selected antibodies of the invention by using an Octet (ForteBio) kinetic binding assay. ForteBio 10× Kinetics Buffer (ForteBio, catalog number 18-5032) was diluted 10-fold with DPBS (Life Technologies, catalog number 14190-136), and the resulting solution was added (0.2 ml per well) to a 96-well plate (Greiner, catalog number 65520). Streptavidin sensors (ForteBio, catalog number 18-5020) were immersed in the solution and equilibrated for at least 10 min at room temperature. In a second 96-well plate (Greiner, catalog number 65520), sensors were washed in 1× Kinetics buffer, and then immersed in 200 ul of 25 nM biotinylated human ANGPTL4 or a biotinylated reference protein (for background substraction) for 1000 sec […] at room temperature. The sensors were then washed in 1× Kinetics buffer for 120 sec, and immersed in 200 ul of ANGPTL4 antibody diluted in 1× Kinetics buffer at various concentrations (serial 2-fold dilutions ranging from 25 nM to 0.4 nM), and antibody association was monitored for 480 seconds. The sensors were then transferred to a well containing 200 ul 1× Kinetics buffer, and antibody dissociation was monitored for 1200 seconds. Background-corrected association and dissociation curves were globally fitted by Octet Software (ForteBio) to generate association (kₒₙ) and dissociation (koff) rate constants, which in turn were used to calculate equilibrium dissociation constants (KD).
# [5] = target: T2, Human ANGPTL3(17-460)-FLAG-His-Avi; assay: direct ELISA on streptavidin-coated MSD plate: biotinylated antigen immobilised at 1 nM, antibody at 1 nM, detection with Sulfo-tagged goat anti-human IgG
# Method: Direct ELISA assays were conducted to characterize antibody binding specificity of selected antibodies of the invention. The assay was performed as follows. A 384-well streptavidin-coated Meso Scale Discovery (MSD) plate was blocked by incubating the plate with 50 μL Blocking Buffer (PBS, pH 7.4, 5% w/v bovine serum albumin) per well at 22° C. for 1 hour with constant shaking (600 rpm). The blocked MSD plate was then washed 3 times with Wash Buffer (PBS, pH 7.4 and 0.05% v/v Tween-20) using a plate washer (BioTek). Following washing, biotinylated human ANGPTL4 proteins diluted in Assay Buffer (PBS, pH 7.4 without CaCl₂ or MgCl₂, 0.5% w/v fatty acid-free bovine serum albumin and 0.02% v/v Tween-20) were immobilized on the surface by incubation at 1 nM concentration (15 μL per well) at 22° C. for one hour: full length human ANGPTL4 (hANGPTL4), human ANGPTL4 coiled-coil domain (hANGPTL4-CCD) and full length human ANGPTL3 (hANGPTL3). The plate was then washed 3 times as described earlier. Antibody diluted to 1 nM concentration in Assay Buffer was then applied to the MSD plate […], and the plate was incubated for 1 hour at 22° C. with constant shaking (600 rpm). Bound antibodies were detected by adding 15 μL per well of a 1:500 dilution of Sulfo-tagged goat anti-human IgG. The plate was then incubated for one hour with constant shaking (600 rpm). The plate was washed 3 times, and then 15 μL/well of 1×MSD read buffer T was added and the plate was developed using a Sector Imager 6000 (Meso Scale Discovery). The data were transferred to Microsoft Excel for analysis and plotted using GraphPad Prism v6. […] An ANGPTL3-specific reference antibody was used as a positive control for the ANGPTL3 binding assay (FIG. 2).
# [6] = target: T1, Human ANGPTL4(26-406)-FLAG-His6-Avi; assay: cell-based or functional assay; remark: listed apart in the source
Binder,Reversal of human ANGPTL4 inhibition of human LPL EC50 [1] [nM],EC50 (read off the curve) [1(E] [2] [nM],Kd [3] [nM],Kd [4] [nM],koff [4] [s⁻¹],kon [4] [M⁻¹ s⁻¹],binding result [5],Reversal of human ANGPTL4 inhibition of human LPL EC50 [6] [nM],EC50 (read off the curve) [1(F] [2] [nM]
"MOR022771 (antibody, human IgG1, kappa, V domains shown, human IgG1) VH: EVQLLESGGGLVQPGGSLRLSCAASGFTFSSYWMHWVRQAPGKGLEWVSGISYSGSSTNYADSVKGRFTISRDNSKNTLYLQMNSLRAEDTAVYYCARDSYIYDLHWGFDNWGQGTLVTVSS VL: DIQMTQSPSSLSASVGDRVTITCRASQDISSYLNWYQQKPGKAPKLLIYAASRLQSGVPSRFSGSGSGTDFTLTISSLQPEDFATYYCQQSYTHPYTFGQGTKVEIKR",,,0.029,,,,,4,
"MOR022761 (antibody, human IgG1, lambda, V domains shown, human IgG1) VH: QVQLVQSGAEVKKPGSSVKVSCKASGGTFQSYAISWVRQAPGQGLEWMGGIIPLFGFANYAQKFQGRVTITADESTSTAYMELSSLRSEDTAVYYCARESYDPYAFDVWGQGTLVTVSS VL: SYELTQPLSVSVALGQTARITCSGDNLGKYSASWYQQKPGQAPVLVIHQDNNRPSGIPERFSGSNSGNTATLTISRAQAGDEADYYCASRAHSMHVVFGGGTKLTVLG",,,0.189,,,,,11,
"MOR022762 (antibody, human IgG1, lambda, V domains shown, human IgG1) VH: QVQLVQSGAEVKKPGSSVKVSCKASGGTFSSYAISWVRQAPGQGLEWMGGIIPLFGFANYAQKFQGRVTITADESTSTAYMELSSLRSEDTAVYYCARESYDPYAFDVWGQGTLVTVSS VL: SYELTQPLSVSVALGQTARITCSGDNLGKYSASWYQQKPGQAPVLVIHQDNNRPSGIPERFSGSNSGNTATLTISRAQAGDEADYYCASRAHSMHVVFGGGTKLTVLG",,,0.107,,,,,4,

# The remaining binders from weak to strong by Kd [3], led by results:
Reversal of human ANGPTL4 inhibition of human LPL EC50 [1] [nM],EC50 (read off the curve) [1(E] [2] [nM],Kd [3] [nM],Kd [4] [nM],koff [4] [s⁻¹],kon [4] [M⁻¹ s⁻¹],binding result [5],Reversal of human ANGPTL4 inhibition of human LPL EC50 [6] [nM],EC50 (read off the curve) [1(F] [2] [nM],Binder
,,0.053,,,,,5,,"MOR022772 (antibody, human IgG1, kappa, V domains shown, human IgG1) VH: EVQLLESGGGLVQPGGSLRLSCAASGFTFSSYWMHWVRQAPGKGLEWVSGISYDASSTNYADSVKGRFTISRDNSKNTLYLQMNSLRAEDTAVYYCARDSYIYDLHWGFDNWGQGTLVTVSS VL: DIQMTQSPSSLSASVGDRVTITCRASQDISSYLNWYQQKPGKAPKLLIYAASRLQSGVPSRFSGSGSGTDFTLTISSLQPEDFATYYCQQSYTHPYTFGQGTKVEIKR"
12,,0.036,0.304,7.4e-05,240000,no binding (tested: 1 nM),,,"MOR021795 (antibody, human IgG1, lambda, V domains shown, human IgG1) VH: QVQLVQSGAEVKKPGSSVKVSCKASGGTFNSYAISWVRQAPGQGLEWMGGIIPLFGFANYAQKFQGRVTITADESTSTAYMELSSLRSEDTAVYYCARESYDPYAFDVWGQGTLVTVSS VL: DIELTQPPSVSVSPGQTASITCSGDNLGKYSASWYQQKPGQAPVLVIHQDNNRPSGIPERFSGSNSGNTATLTISGTQAEDEADYYCASRAHSMHVVFGGGTKLTVLG"
4,,0.026,0.069,1.5e-05,210000,no binding (tested: 1 nM),,~1,"MOR021830 (antibody, human IgG1, kappa, V domains shown, human IgG1) VH: QVQLLESGGGLVQPGGSLRLSCAASGFTFSSYWMHWVRQAPGKGLEWVSGISYDGSSTNYADSVKGRFTISRDNSKNTLYLQMNSLRAEDTAVYYCARDSYIYDLHWGFDNWGQGTLVTVSS VL: DIQMTQSPSSLSASVGDRVTITCRASQDISSYLNWYQQKPGKAPKLLIYAASRLQSGVPSRFSGSGSGTDFTLTISSLQPEDFATYYCQQSYTHPYTFGQGTKVEIKR"
1,~0.5,0.009,0.047,2.5e-05,530000,no binding (tested: 1 nM),,,"MOR021823 (antibody, human IgG1, kappa, V domains shown, human IgG1) VH: QVQLLESGGGLVQPGGSLRLSCAASGFTFSSYYLHWVRQAPGKGLEWVSYISGDGSSTYYADSVKGRFTISRDNSKNTLYLQMNSLRAEDTAVYYCARERSYAHDHWGQGTLVTVSS VL: DIQMTQSPSSLSASVGDRVTITCRASQDIYIDLNWYQQKPGKAPKLLIYAASKLQSGVPSRFSGSGSGTDFTLTISSLQPEDFATYYCQQGYFLPQTFGQGTKVEIKR"
